For experiment [1], the target named is human α-thrombin (human) (UniProt P00734). The experiment is described as follows: inhibition of thrombin-mediated hydrolysis of Tosyl-Gly-Pro-Arg-AMC (fluorogenic amidolytic assay).
The target in experiment [2] is bovine α-thrombin (bovine) (UniProt P00735). Described as above.
Experiment [3] concerns the target human α-thrombin (human) (UniProt P00734).
Experiment [4] has as its target bovine α-thrombin (bovine) (UniProt P00735).
For a further experiment, the target named is thrombin. The experiment is described as follows: Ki, antithrombin activity in vitro (amidolytic assay of thrombin activity).

A word on the Ki: it is a measure of affinity in units of concentration, obtained from inhibition or displacement. A low value points to a stronger hold on the target. “P51 hirudin^45-55 (from UniProt P01050) (peptide)”: the inhibitory constant (Ki) with human α-thrombin (human) [1] is 110 nM; in experiment [2], 720 nM.
For “P53 [D-Phe^45, Arg^47 ]hirudin^45-65 (peptide)”, the IC50, inhibition of fibrin clot formation with human α-thrombin (human) [3] came to 4 nM; in experiment [4], 70 nM.
In the experiment with human α-thrombin (human) [1], “P54 [Thr^45, Arg^47, D-Pro^48 ]hirudin^45-65 (from UniProt P01050) (peptide)” yielded an inhibition constant Ki of 72 nM.
Still for that read-out and setting: next, “P73 [D-Phe^45, Ala^47 ]hirudin^45-65 (from UniProt P01050) (peptide)”: 41 nM.
Regarding r-Hirudin HV2 (from UniProt P09945), the inhibition constant Ki in the experiment with human α-thrombin (human) [1] stood at 0.00038 nM; with thrombin it was 0.0004 nM.

(Values after patent publication US6060451.)
